In article PMC9569640 (2022):
Square brackets hold non-standard residues; d marks the D form. Ends that are not written are not given here. FAM = FAM, a fluorescent label attached at the N-terminus of the peptide; pY = N[C@@H](Cc1ccc(OP(=O)(O)O)cc1)C(=O)O

How the values were obtained:
Assay in all cases: fluorescence polarization
CagA EPIYA-D 13-mer = CagA EPIYA-D 13-mer (Helicobacter pylori)
CagA EPIYA-A 13-mer = CagA EPIYA-A 13-mer (Helicobacter pylori)
CagA EPIYA-CD 8-mer = target: T1, CagA EPIYA-CD 8-mer (Helicobacter pylori)
T1 chain: {FAM}-EPI[pY]ATID

CagA EPIYA-B 13-mer = target: T2, CagA EPIYA-B 13-mer (Helicobacter pylori)
T2 chain: {FAM}-PEEPI[pY]AQVAKKV

CagA EPIYA-C 13-mer = target: T3, CagA EPIYA-C 13-mer (Helicobacter pylori)
T3 chain: {FAM}-SPEPI[pY]ATIDDLG

B1: SHIP2 SH2 (protein)
chain: APSWYHRDLSRAAAEELLARAGRDGSFLVRDSESVAGAFALCVLYQKHVHTYRILPDGEDFLAVQTSQGVPVRRFQTLGELIGLYAQPNQGLVCALLLPVEGE
Kd (CagA EPIYA-D 13-mer): 3.16 µM
Kd (CagA EPIYA-A 13-mer): 23.4 µM
Kd (CagA EPIYA-CD 8-mer): 4.45 µM
Kd (CagA EPIYA-B 13-mer): 18.6 µM
Kd (CagA EPIYA-C 13-mer): 2.96 µM
